According to PMC2575619, “Novel splice variants derived from the receptor tyrosine kinase superfamily are potential therapeutics for rheumatoid arthritis” (Arthritis Research & Therapy, 2008):
Blank lines part the entries; values can stand above or below the molecule they belong to.

Columns and labels:
angiopoietin-1 = angiopoietin-1 (UniProt Q15389); experiment: ELISA; Ang-1 coated on 96-well plates at 4 μg/ml in PBS; purified Tie1-751(6His) applied, 1.5 hours at room temperature, three rinses in PBS/0.05% Tween-20; detected with biotin-labeled extracellular domain-specific antibody
[1] = molecular target: T1, recombinant human VEGFR3/Fc chimera (human, UniProt P35916 25-775); experiment: co-IP; competition in the solution binding of VEGF-D to VEGFR3-765-Myc: fivefold molar excess of recombinant human VEGFR3/Fc or VEGFR1/Fc chimera; immunoprecipitation with anti-VEGF-D, blot with anti-Myc; conditions: both partners purified
T1 construct: Human VEGF receptor type 3, the soluble part fused to Fc; Commercial chimera, probably the extracellular domain on human IgG1 Fc; also called soluble VEGFR3/Fc chimera; source: bought: R&D Systems
T1 sequence (looked up): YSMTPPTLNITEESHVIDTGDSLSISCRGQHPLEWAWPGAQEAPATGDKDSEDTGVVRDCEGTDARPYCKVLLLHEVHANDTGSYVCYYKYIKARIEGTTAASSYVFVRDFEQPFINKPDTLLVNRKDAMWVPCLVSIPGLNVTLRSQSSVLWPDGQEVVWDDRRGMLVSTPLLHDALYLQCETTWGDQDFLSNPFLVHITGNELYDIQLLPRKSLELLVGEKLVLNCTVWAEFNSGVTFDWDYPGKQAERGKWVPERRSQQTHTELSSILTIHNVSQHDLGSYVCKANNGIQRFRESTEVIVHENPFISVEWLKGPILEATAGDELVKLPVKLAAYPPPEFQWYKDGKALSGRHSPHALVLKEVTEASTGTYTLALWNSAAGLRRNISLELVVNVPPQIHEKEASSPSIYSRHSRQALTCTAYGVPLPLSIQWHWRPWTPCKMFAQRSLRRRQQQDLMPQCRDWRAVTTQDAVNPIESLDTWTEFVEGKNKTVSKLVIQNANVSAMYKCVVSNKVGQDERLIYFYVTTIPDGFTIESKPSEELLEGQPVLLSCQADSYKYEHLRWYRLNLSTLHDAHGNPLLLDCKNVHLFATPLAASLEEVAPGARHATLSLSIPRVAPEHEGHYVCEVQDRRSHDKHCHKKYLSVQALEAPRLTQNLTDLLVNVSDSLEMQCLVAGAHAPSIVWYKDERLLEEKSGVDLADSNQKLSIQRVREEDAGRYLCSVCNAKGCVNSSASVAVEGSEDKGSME

angiopoietin-1, sequence (Q15389 16-498): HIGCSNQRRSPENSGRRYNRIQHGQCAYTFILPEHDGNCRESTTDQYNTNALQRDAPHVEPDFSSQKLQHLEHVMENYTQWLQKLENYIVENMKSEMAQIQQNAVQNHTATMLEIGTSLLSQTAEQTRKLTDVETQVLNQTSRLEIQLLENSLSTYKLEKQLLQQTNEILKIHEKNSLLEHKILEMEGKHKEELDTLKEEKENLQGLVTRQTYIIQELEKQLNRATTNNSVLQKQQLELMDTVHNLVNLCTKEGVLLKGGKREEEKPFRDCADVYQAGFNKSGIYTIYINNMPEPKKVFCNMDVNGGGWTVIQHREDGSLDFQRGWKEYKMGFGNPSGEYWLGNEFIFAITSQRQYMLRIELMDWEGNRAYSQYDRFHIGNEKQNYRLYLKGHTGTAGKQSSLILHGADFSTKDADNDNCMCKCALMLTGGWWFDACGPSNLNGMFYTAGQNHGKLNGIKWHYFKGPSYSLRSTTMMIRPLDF

Kd (angiopoietin-1): 89 nM
Molecule: Tie1-751(6His) (from UniProt P35590-1 22-740) (receptor)

binding result [1]: binds
B1: VEGF-D (ligand, human, UniProt O43915 89-205, looked up)
chain: FAATFYDIETLKVIDEEWQRTQCSPRETCVEVASELGKSTNTFFKPPCVNVFRCGGCCNEESLICMNTSTSYISKQLFEISVPLTSVPELVPVKVANHTGCKCLPTAPRHPYSIIRR
notes: Human VEGF-D, bought recombinant protein; source: bought: R&D Systems
